Variants at the floor of the assay were thinned out.
B1: TPR 5TU (parent)
chain: GGAUCUUCUCGAUCUAACAAAAAAGACAAAUCUGCCACAAAGCUUGAGAGCAUCUUCGGAUGCAGAGGCGGCAGCCUUCGGUGGCGCGAUAGCGCCAACGUUCUCAACUAUGACACGCAAAACGCGUGCUCCGUUGAAUGGAGUUUAUCAUG

Variants of: B1
Assay: polymerase ribozyme fitness, log enrichment relative to wild type (log ratio); higher = more active; in vitro selection for triplet polymerase activity
How it was run: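 Input and output libraries were sequenced on Illumina after a single in vitro selection round, run in triplicate on PCR-built, transcribed mutant libraries of each subunit of a heterodimeric triplet polymerase ribozyme. Selection annealed libraries to a biotinylated primer, the partner subunit and triplets, incubated them frozen at −7 °C, then gel-excised extended constructs for streptavidin-bead capture and RT-PCR. Genotypes with ≥10 input reads and ≥1 read per output were kept. Fitness is the logarithm, taken in base 2, of genotype enrichment divided by wild-type enrichment, using inverse-variance-weighted replicate averages.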

| Variant | polymerase ribozyme fitness (log ratio) |
| --- | --- |
| GGAUCUUCUCGAUCUAACAAAAAAGACAAAUCUGCCACAAAGCUUGAGAGCAUUUUCGGAUGCAGAGGCGGCAGCCUUUGGUGGCGCGAUAUCGUCAACGUUCUCAACUAUGACACGCAAAACGCGUGCUCCGUUGAAUGCAGUUUAUCAUG [C54U C79U G92U C95U G141C] | -3.77 |
| GGAUCUUCUCGAUCUAACAAAAAAGACAAAUCUGCCACAAAGCUUGAGAGCAUUUUCGGAUGCAGAGGCGGCAGCCUUCGGUGGCGCGAUAGCGCAAACGUUCUGAACUAUGACACGCAAAACUCGUGCUCCGUUGAAUGGAGUUUAUCAUG [C54U C96A C105G G124U] | -3.42 |
| GGAUCUUCUCGAUCUAACAAAAAAGACAAAUCUGCCACAAAGCUUGAGAGCAUUUUCGGAUGCAGAGGCGGCAGCCUUCGGUGGCGUGAUAGCGCCAACGUUCUCAACUAUGACACGCAAAACGCGUGCUCCGUUGAAUGGAGUUUAUCAUG [C54U C87U] | -1.08 |
| GGAUCUUCUCGAUCUAACAAAAAAGACAAAUCUGCCACAAAGCUUGAGAGCAUUUUCGGAUGCAGAGGCGGCAGCCUUCGGUGGCGGGAUAGCGCCAACGUUCUCAACUAUGACACGCAAAACGCGUGCUCCGUUGAAUGGAGUUUAUCAUG [C54U C87G] | ≤ -4.2 |
| GGAUCUUCUCGAUCUAACAAAAAAGACAAAUCUGCCACAAAGCUUGAGAGCAUUUUCGGAUGCAGAGGCGGCAGCCUUCGGUGGCGGGAUAGUGCCAACGUUCUCAACUAUGACACGCAAAACGAGUGCUCCAUUGAAUGGCGUUUAUCAUG [C54U C87G C93U C125A G133A A142C] | ≤ -4.2 |
| GGAUCUUCUCGAUCUAACAAAAAAGACAAAUCUGCCACAAAGCUUGAGAGCAUUUUCGGAUGCAGAGGCGGCAGCCUUCGGUGGUGCGAUAGCGACAACGUUCUCAACUAUGACACGCAAAACGCGUGCUCCGUUGAAUGGAGUUUAUCAUG [C54U C85U C95A] | -1.84 |
| GGAUCUUCUCGAUCUAACAAAAAAGACAAAUCUGCCACAAAGCUUGAGAGCAUUUUCGGAUGCAGAGGCGGCAGCCUUCGGUGGUGCGAUAGCGCCAACGUUCUCAACUAUGACACGCAAAACGCGUGUUCCGUUGAAUGGAGUUUAUCAUG [C54U C85U C129U] | -0.134 |
| GGAUCUUCUCGAUCUAACAAAAAAGACAAAUCUGCCACAAAGCUUGAGAGCAUUUUCGGAUGCAGAGGCGGCAGCCUUCGGUGGCGGGAUAGCGCCAACGUUCUCAACUAUGACACGCAAAACGCGUGCUCCGUUGAAUGGCGUUUAUCAUG [C54U C87G A142C] | ≤ -4.2 |
| GGAUCUUCUCGAUCUAACAAAAAAGACAAAUCUGCCACAAAGCUUGAGAGCAUUUUCGGAUGCAGAGGCGGCAGCCUUCGGUGGCGCGAUAGCGACAACGUUCUCAACUAUGACACGCAAAACGCUUGCUCCGUUGAAUGGAGUUUAACAUG [C54U C95A G126U U148A] | ≤ -4.2 |
| GGAUCUUCUCGAUCUAACAAAAAAGACAAAUCUGCCACAAAGCUUGAGAGCAUUUUCGGAUGCAGAGGCGGCAGCCUUCGGUGGCGCGAUAGCGCCAACGUUCUCAACUAUGACACGCAAAACGCGUGCUCCGUUGAAUGGAGUUUAUUAUG [C54U C149U] | -0.259 |
| GGAUCUUCUCGAUCUAACAAAAAAGACAAAUCUGCCACAAAGCUUGAGAGCAUUUUCGGAUGCAGAGGCGGCAGCCUUCGGUGGCGUGAUACCGCCAACGUUCUCAACUAUGACACGCAAAACGCGUGCUCCGUUGAAUGGAGUUUAUCAUG [C54U C87U G92C] | -0.365 |
| GGAUCUUCUCGAUCUAACAAAAAAGACAAAUCUGCCACAAAGCUUGAGAGCAUUUUCGGAUGCAGAGGCGGCAGCCUUCGGUGGCGUGAUAGCGCCAAUGUUCUCAACUAUGACACGCAAAACGCGUGCUCCGUCGAAUGGAGUUUAUCAUG [C54U C87U C99U U135C] | -3.26 |
| GGAUCUUCUCGAUCUAACAAAAAAGACAAAUCUGCCACAAAGCUUGAGAGCAUUUUCGGAUGCAGAGGCGGCAGCCUUCGGUGGCGCGAUAGCGCUAACGUUCUCAACUAUGACACGCAAAACGCGUGCUCCGUUGAAUGGAGGUUAUCAUG [C54U C96U U144G] | 0.217 |
| GGAUCUUCUCGAUCUAACAAAAAAGACAAAUCUGCCACAAAGCUUGAGAGCAUUUUCGGAUGCAGAGGCGGCAGCCUUCGGUGGCGCGAUAGCGCCAACGUUCUCAACUAUGAAACGCAAAACGCGUGCUCCGUUGUAUGGAGUUUAUCAUG [C54U C114A A137U] | -3.59 |
| GGAUCUUCUCGAUCUAACAAAAAAGACAAAUCUGCCACAAAGCUUGAGAGCAUUUUCAGAUGCAGAGGCGGCAGCCUUCGGUGGCGCGAUAACGCCAACGUUCUCAACUAUGACACGCAAAACGCGUGCUCCGUUGAAUGGAGUAUAUCAUG [C54U G58A G92A U145A] | -3.35 |
| GGAUCUUCUCGAUCUAACAAAAAAGACAAAUCUGCCACAAAGCUUGAGAGCAUUUUCGGAUGCAGAGGCGGCAGCCUUCGGUGGAGCGAUAGCGCCAACGUUCUCAACUAUGACACGCAAAACGCGUGCUCCGUUGAAUGGAGUUUAUCAUG [C54U C85A] | -2.3 |
| GGAUCUUCUCGAUCUAACAAAAAAGACAAAUCUGCCACAAAGCUUGAGAGCAUUUUCGGAUGCAGAGGCGGCAGCCUUCGGUGGGGCGAUAGCGCCAACGUUCUCAACUAUGACACGCAAAACGCGUGCUCCGUUGAAUGGAGUUUAUCAUG [C54U C85G] | -2.49 |
| GGAUCUUCUCGAUCUAACAAAAAAGACAAAUCUGCCACAAAGCUUGAGAGCAUUUUCGGAUGCAGAGGCGGCAGCCUUCGGUGGCGCGAUAGCGCAAACGUUCUUAACUAUGACACGCAAAACGCGUGCUCCGUUGAAUGGAGUUUAUCAUG [C54U C96A C105U] | 0.0167 |
| GGAUCUUCUCGAUCUAACAAAAAAGACAAAUCUGCCACAAAGCUUGAGAGCAUUUUCCGAUGCAGAGGCGGCAGCCUUCGGUGGAGCGAUAGCGCCAACGUUCUCAACUAUGACACGCAAAACGCGUGCUCCGUUGAAUGGAGUUUAUCAUG [C54U G58C C85A] | -2.42 |

Reference: the RNAGym collection of RNA variant scans (doi:10.1073/pnas.2313332121)
